Reference: PMC12599243, “Mechanistic insights into DNA binding by BD1 of the TAF1 tandem bromodomain module”

Legend:
[1] = target: Histone H4 H4K8acK16ac peptide (Homo sapiens) (UniProt P62805); settings: cited from earlier work
[2] = target: Histone H4 H4K5acK12ac peptide (Homo sapiens) (UniProt P62805); settings: cited from earlier work
[3] = target: TAF1 tandem bromodomain BD1 triple mutant (R1435S/K1436S/R1437S), 6xHis-tagged (human); assay: pull-down; 20 μg hyperacetylated HeLa mononucleosomes (cells treated with trichostatin A) mixed with 50 μM 6xHis-tagged TAF1 tandem bromodomain or its mutant, 4°C, 60 min; captured on Ni-NTA agarose; washed with 50 mM HEPES pH 7.5, 500 mM KCl, 2 mM EDTA, 0.1% Tween-20; eluted with 500 mM imidazole; western blot with anti-H4K5ac and anti-H4K8ac
[4] = target: T1, TAF1 tandem bromodomain (BD1-BD2) (human, UniProt P21675 1402-1656); assay: EMSA; settings: EMSA: 50 mM HEPES pH 7.5, 100 mM NaCl, 35 nM DNA, 1 h at 4 C, 6% native PAGE, 0.5x TBE, 100 V on ice. HeLa mononucleosome pulldown (undefined DNA) not listed.
T1 sequence: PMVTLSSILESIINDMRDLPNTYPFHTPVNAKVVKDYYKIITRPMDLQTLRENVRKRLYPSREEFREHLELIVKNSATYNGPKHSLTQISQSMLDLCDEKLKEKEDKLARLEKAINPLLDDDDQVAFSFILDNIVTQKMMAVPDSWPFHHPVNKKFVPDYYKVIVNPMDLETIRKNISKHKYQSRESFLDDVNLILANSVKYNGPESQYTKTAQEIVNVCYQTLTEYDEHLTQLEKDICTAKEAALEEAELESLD

[5] = target: T1, TAF1 tandem bromodomain (BD1-BD2); assay: EMSA; no peptide; EMSA: 50 mM HEPES pH 7.5, 100 mM NaCl, 35 nM DNA, 1 h at 4 C; 6% native PAGE, 0.5x TBE, 100 V on ice. HeLa mononucleosome pulldown (undefined DNA) not listed.; settings: protein: recombinant; tags: C-terminal 6xHis; label: none (SYBR Gold stain); blunt

Q: Which Kd [1] does the source give for “TAF1 tandem bromodomain (from UniProt P21675)” here?
A: 5.3 µM

Q: What about the Kd [2] of the same molecule?
A: 1.4 µM

Q: With “acetylated mononucleosomes isolated from HeLa cells (from UniProt P62805 1-103) (complex)” as the molecule, how does the fold decrease in binding against wildtype [3] read?
A: 1.5 fold

Q: With 147 bp Widom 601 DNA as the molecule, how does the Kd ([4]; 320 uM H4(1-15)K5acK12ac peptide) read?
A: 19.7 µM

Q: And the Kd ([4]; no peptide)?
A: 16.8 µM

B1: 147 bp GC-rich 601 DNA (AT-tracts mutated to GC) (dsDNA)
DNA 1: CTGGAGAATCCCGGTGCCGAGGCCGCTCGACTGGTCGTAGACAGCTCTAGCACCGCTCAGACGCACGTACGCGCTGTCCCCCGCGTTTCAGCCGCCAAGGGGACTGCTCCCTAGTCTCCAGGCACGTGTCAGATGCGTACATCCTGT
DNA 2: ACAGGATGTACGCATCTGACACGTGCCTGGAGACTAGGGAGCAGTCCCCTTGGCGGCTGAAACGCGGGGGACAGCGCGTACGTGCGTCTGAGCGGTGCTAGAGCTGTCTACGACCAGTCGAGCGGCCTCGGCACCGGGATTCTCCAG
Q: With B1 as the molecule, how does the Kd [5] read?
A: 34.2 ± 5.4 µM
